Experimental data published in patent US9133449B2, “Mutant pyrrolysyl-tRNA synthetase, and method for production of protein having non-natural amino acid integrated therein by using the same” (priority 2007, dated 2015).

Columns and labels:
[1] = tested on: tRNA^Pyl; test: Aminoacylation assay of PylRS mutants / PylRS(c270); assay type: biochemical, Methanosarcina mazei
Procedure: The full length PylRS mutant was overexpressed in E. coli cells, and then purified using HisTrap column (Amersham Biosciences Inc.). Aminoacylation reaction was performed at ca. 37 degrees Celsius for 1 h. The reaction solution for aminoacylation comprises 2.83 μM of purified PylRS derived from M. mazei (or 9 μM of PylRS (c270)), 10 mM of MgCl2, 2 mM of ATP, 4 mM of DTT, 2.11 μM of transcript of M. mazei-derived tRNA^Pyl, and adequate amount of concentrated solution of a variety of amino acids dissolved in 100 mM of HEPES buffer (pH 7.2). Acid-urea polyacrylamide gel electrophoresis was used to analyze whether tRNA had been aminoacylated or not.

[2] = tested on: amber stop codon in the chloramphenicol acetyltransferase (CAT) gene, E. coli DH10B cells; test: Positive selection by suppression of amber stop codon in CAT gene (chloramphenicol resistance); assay type: cell-based
Procedure: The PylRS mutant library was first subjected to a positive selection based on suppression of an amber stop codon located at a nonessential position in the chloramphenicol acetyltransferase (CAT) gene. […] Then the surviving cells were grown in the presence of chloramphenicol and the absence of Boc-Lys.

B1: PylRS(c270) mutant (Y306A) (protein, UniProt Q8PWY1 185-454, looked up, variant Y306A)
chain: ASAPALTKSQTDRLEVLLNPKDEISLNSGKPFRELESELLSRRKKDLQQIYAEERENYLGKLEREITRFFVDRGFLEIKSPILIPLEYIERMGIDNDTELSKQIFRVDKNFCLRPMLAPNLANYLRKLDRALPDPIKIFEIGPCYRKESDGKEHLEEFTMLNFCQMGSGCTRENLESIITDFLNHLGIDFKIVGDSCMVYGDTLDVMHGDLELSSAVVGPIPLDREWGIDKPWIGAGFGLERLLKVKHDFKNIKRAARSESYYNGISTNL
esterification of tRNA^Pyl with Z-Lys ([1]; substrate Z-Lys, compared with wild-type PylRS): much more efficiently than the wild-type PylRS

B2: PylRS(c270): M. mazei PylRS of which the 184 amino acids from the N terminus were truncated (protein, UniProt Q8PWY1 185-454, looked up, fragment)
chain: ASAPALTKSQTDRLEVLLNPKDEISLNSGKPFRELESELLSRRKKDLQQIYAEERENYLGKLEREITRFFVDRGFLEIKSPILIPLEYIERMGIDNDTELSKQIFRVDKNFCLRPMLAPNLYNYLRKLDRALPDPIKIFEIGPCYRKESDGKEHLEEFTMLNFCQMGSGCTRENLESIITDFLNHLGIDFKIVGDSCMVYGDTLDVMHGDLELSSAVVGPIPLDREWGIDKPWIGAGFGLERLLKVKHDFKNIKRAARSESYYNGISTNL
aminoacylation activity with pyrrolysine ([1]; substrate pyrrolysine): may esterify

B3: PylRS mutant (Y384F) (protein, UniProt Q8PWY1 1-454, looked up, variant Y384F)
Pyrrolysine--tRNA ligase: MDKKPLNTLISATGLWMSRTGTIHKIKHHEVSRSKIYIEMACGDHLVVNNSRSSRTARALRHHKYRKTCKRCRVSDEDLNKFLTKANEDQTSVKVKVVSAPTRTKKAMPKSVARAPKPLENTEAAQAQPSGSKFSPAIPVSTQESVSVPASVSTSISSISTGATASALVKGNTNPITSMSAPVQASAPALTKSQTDRLEVLLNPKDEISLNSGKPFRELESELLSRRKKDLQQIYAEERENYLGKLEREITRFFVDRGFLEIKSPILIPLEYIERMGIDNDTELSKQIFRVDKNFCLRPMLAPNLYNYLRKLDRALPDPIKIFEIGPCYRKESDGKEHLEEFTMLNFCQMGSGCTRENLESIITDFLNHLGIDFKIVGDSCMVFGDTLDVMHGDLELSSAVVGPIPLDREWGIDKPWIGAGFGLERLLKVKHDFKNIKRAARSESYYNGISTNL
concentration of chloramphenicol at which cells survived ([2]; in the absence of Boc-Lys): less than 25 μg/ml | concentration of chloramphenicol at which cells survived ([2]; in the presence of Boc-Lys (1 mM)): 150 µg/mL
